Measured values as given in US20260055194A1 (LYCIA THERAPEUTICS, published 2026).
Changes are numbered by the printed parent chain. Where two headings read alike, the source gives them in different places.

Tests used:
[1] = target: human CI-M6PR on K562 cells (human, UniProt P11717 41-2491); assay: cell-based or functional assay
[2] = target: T1, Recombinant human M6PR ECD-His (human, UniProt P11717 41-2304); assay: Octet BLI; mIgG from hybridoma supernatant on anti-mouse biosensor, His-tagged human M6PR analyte
T1 construct: extracellular domain; also called recombinant His-tagged human M6PR; human M6PR antigen; not shown: His tag

[3] = target: T2, purified recombinant CI-M6PR (domains 1-9) protein (human, UniProt P11717 41-1365, limits assumed); assay: BLI (GatorPrime), antibody on anti-mouse IgG Fc sensor, CI-M6PR (domains 1-9) in solution, global 1:1 fit;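 note: human CI-M6PR tested at a range of concentrations against captured antibodies, measured at 30 °C, analyte diluted in PBS carrying Tween-20, BSA and NaN3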
T2 construct: domain: domains 1-9; also called human CI-M6PR; wild-type human CI-M6PR

[4] = target: T2, purified recombinant CI-M6PR (domains …); assay: ELISA on human M6PR, Abs 450nm, antibody about 0.0005-1 ug/mL
[5] = target: T2, purified recombinant CI-M6PR (domains …); assay: as above; remark: listed apart in the source
[6] = target: T2, purified recombinant CI-M6PR (domains …); assay: as above; remark: listed apart in the source
[7] = target: T2, purified recombinant CI-M6PR (domains …); assay: as above; remark: listed apart in the source
[8] = target: T2, purified recombinant CI-M6PR (domains …); assay: as above; remark: listed apart in the source
[9] = target: T2, purified recombinant CI-M6PR (domains …); assay: as above; remark: listed apart in the source
[10] = target: T2, purified recombinant CI-M6PR (domains …); assay: as above; remark: listed apart in the source

B1: 06F1 (antibody, V domains shown)
VH: EVQLQQSGAELVRPGASVKLSCTASGFNIKDDYMHWVKQRPEQGLEWIGWIDPENGDTEYASKFQGKATITADTSSNTAYLQLSSLTSEDTAVYYCTNYYGSSPFDYWGQGTTLTVSS
VL: QIVLTQSPAIMSAFLGERVTMTCTASSSVSSRYLHWYQQKPGSSPKLWIYSTSNLASGVPARFSGSGSGTSYSLTISSMEAEDAATYYCHQYHRSPLTFGAGTKLELK
notes: also called Clone # 67
- Uptake pHrodo (MFI) [1]: 34200 MFI
- Kd [2]: 17.3 nM

B2: 08D8 (antibody, V domains shown)
VH: QVQLQQPGAELVKPGASVKLSCKASGYTFTSYWMQWVKQRPGQGLEWIGEIDPSDSYTNYNQKFKGKATLTVDTSSSTAYMQLSSLTSEDSAVYYCARGDYYGSSSWFAYWGQGTLVTVSA
VL: DIVMTQAAPSVPVTPGESVSISCRSSKSLLHSNGNTYLYWFLQRPGQSPQLLIYRMSNLASGVPDRFSGSGSGTAFTLRISRVEAEDVGVYYCMQHLEYPFTFGAGTKLELK
notes: also called Clone # 84
- Kd [3]: 351 nM
- koff [3]: 0.00185 s⁻¹
- kon [3]: 5250 M⁻¹ s⁻¹
- Uptake pHrodo (MFI) [1]: 10900 MFI
- Kd [2]: 259 nM

B3: 11B12 (antibody, V domains shown)
VH: QVQLQQSGPELVKPGASVKISCKASGYSFTSYYIHWVKQRPGQGLEWIGWIYPGSGNTKYNEKFKGKATLTADTSSSTAYMQLSSLTSEDSAVYYCARGNWHWYFDVWGTGTTVTVSS
VL: EIVLTQSPALMAASPGEKVTITCSVSSSISSSNLHWYQQKSETSPKPWIYGTSNLASGVPVRFSGSGSGTSYSLTISSMEAEDAATYYCQQWSSYPLTFGAGTKLELK
notes: also called Clone # 75
- Kd [3]: 237 nM
- koff [3]: 0.0112 s⁻¹
- kon [3]: 47400 M⁻¹ s⁻¹
- Uptake pHrodo (MFI) [1]: 43000 MFI
- Kd [2]: 90.6 nM

B4: 18G4 (antibody, V domains shown)
VH: EVKLMESGGGLVQPGASLRLSCAASGFTFTDYYMSWVRQPPGKAPEWLALIRNKANGYTTEYNASVKGRFTISRDNSQNILYLQMNTLRTEDSATYYCVRGGFAYWGQGTLVTVSA
VL: QAVVIQESALTTSPGETVTLTCRSSTGAVTTSHYAIWVQEKPDHLFTGLIGGTNNRVPGVPARFSGSLIADKAALTITGAQTEDEAIYFCALWYTNQFIFGSGTKVTVL
notes: also called Clone # 45
- Kd [3]: 13 nM
- koff [3]: 0.000616 s⁻¹
- kon [3]: 47200 M⁻¹ s⁻¹
- EC50 (read off the curve) [4]: ~0.01 µg/mL
- Uptake pHrodo (MFI) [1]: 10400 MFI
- Kd [2]: 8.74 nM

B5: 16H4 (antibody, V domains shown)
VH: QVQLKQSGPGLVQPSQSLSITCTASGFSLTSYGVHWVRQSPGKGLEWLGVIWSGGSTDYSAAFISRLSISKDSSKSQVFFKMNSLQADDTAIYYCARNLPITSYDPSSFYAMDYWGQGTSVTVSS
VL: DIQMTQTTSSLSASLGDRVTISCSASQGISNYLNWYQQKPDGTVKLLIYYTSSLHSGVPSRFSGSGSGTDYSLTISNLEPEDIATYYCQQYSKLPFTFGSGTKLEIK
notes: also called Clone # 95
- Uptake pHrodo (MFI) [1]: 13400 MFI
- Kd [2]: 615 nM

B6: 53B11 (antibody, V domains shown)
VH: EVQLQQSGPELVKPGTSMKISCKASGYSFTDYTVNWVKQSHGKNLEWIGLINPYNGGTSYNQKFKGKATLTVDKSSSTAYMELLSLTSEDSAVYYCARWGYYYATSYYFAMDYWGQGTSVTVSS
VL: DIQMNQSPSSLSASLGDTITITCHASQNINVWLSWYQQKPGNIPKLLIYKASNLHTGVPSRFSGSGSGTGFTLTISSLQPEDIATYYCQQGQSYPWTFGGGTKLEIK
notes: also called Clone # 33
- Kd [3]: 3.44 nM
- koff [3]: 0.000445 s⁻¹
- kon [3]: 129000 M⁻¹ s⁻¹
- Uptake pHrodo (MFI) [1]: 9700 MFI
- Kd [2]: 2.59 nM

B7: 06D12 (antibody, V domains shown)
VH: QVQLQQSGAELMKPGASVKLSCKATGYTFTGYWIEWVKQRPGHGLEWIGEILPGSGSTNYNEKFKGKATFTADTSSNTAYMQLSSLTTEDSAIYYCAYTVVATDWYFDVWGTGTTVTVSS
VL: ENVLTQSPAIMSASLGEKVTMSCRASSSVNYMYWYQQKSDASPKLWIYYTSNLAPGVPARFSGSGSGNSYSLTISSMEGEDAATYYCQQFTSSPWTFGGGTKLEIK
notes: also called Clone # 10
- Uptake pHrodo (MFI) [1]: 47000 MFI
- Kd [2]: 9.56 nM

B8: 12D5 (antibody, V domains shown)
VH: QVQLQQPGAELVKPGASVKLSCKASGYTFTNYWMHWVKQRPGQGLEWIGMIHPNSGSTNYNEKFKSKATLTVDKSSSTAYMQLSSLTSEDSAVYYCARPHGYPFGYWGQGTTLTVSS
VL: B7 VL with W95Y
notes: also called Clone # 26
- EC50 (read off the curve) [5]: ~0.01 µg/mL
- Kd [3]: 184 nM
- koff [3]: 0.0123 s⁻¹
- kon [3]: 66700 M⁻¹ s⁻¹
- Uptake pHrodo (MFI) [1]: 35800 MFI
- Kd [2]: 12.2 nM

B9: 43C8 (antibody, V domains shown)
VH: EIQLQQSGPELVKPGASVKMSCKASGYTFTDYVISWVKQRTGQGLEWIGEIYPGSHTYYNEKFKGKATLTADKSSNTAYMQLSSLTSEDSAVYFCALTAGAMDYWGQGTSVTVSS
VL: NIMMTQSPSSLAVSAGEKVTMSCKSSQSVLYSSNQKNYLAWYQQKPGQSPKLLIYWASTRESGVPDRFTGSGSGTDFTLTISSVHAEDLAVYYCHQYLSSYTFGGGTKLEIK
notes: also called Clone # 28
- EC50 (read off the curve) [6]: ~0.02 µg/mL
- Kd [3]: 6.33 nM
- koff [3]: 0.00104 s⁻¹
- kon [3]: 164000 M⁻¹ s⁻¹
- Uptake pHrodo (MFI) [1]: 30800 MFI
- Kd [2]: 5.27 nM

B10: 45A12 (antibody, V domains shown)
VH: QVQLQQSGAELMKPGASVKISCKATGYTFSTYWIEWVKQRPGHGLEWIGEILPGSGSTNYNEKFKGKATFTADASSNTAYMQLSSLTSEDSAVYYCARDGGAMDYWGQGTSVTVSS
VL: B9 VL with S28R, S83T, H85Q, A86P, Y101R
notes: also called Clone # 36
- Kd [3]: 108 nM
- koff [3]: 0.00872 s⁻¹
- kon [3]: 81000 M⁻¹ s⁻¹
- Uptake pHrodo (MFI) [1]: 36000 MFI
- Kd [2]: 30 nM
- EC50 (read off the curve) [7]: ~0.01 µg/mL

B11: 17F11 (antibody, V domains shown)
VH: EVQLQQSGPELVKPGASVKMSCKASGYTFTDYNMHWVKQSHGKSLEWIGYINPNNGGTNYNQKFQGKATLTVNKSSRTAYMELRSLTSEDSAVYYCVRFYYGSRYYAMDYWGQGTSVTVSS
VL: DIVMTQSPATLSVTPGDRVSLSCRASQSISDYLHWYQQKSHESPRLLIKYASQSISGIPSRFSGSGSGSDFTLSINSVEPEDVGVYYCQNGHSFPYTFGGGTKLEIK
notes: also called Clone # 55
- Kd [3]: 10 nM
- koff [3]: 0.000454 s⁻¹
- kon [3]: 45300 M⁻¹ s⁻¹
- Uptake pHrodo (MFI) [1]: 12500 MFI
- Kd [2]: 10.5 nM
- EC50 (read off the curve) [8]: ~0.01 µg/mL

B12: 21D5 (antibody, V domains shown)
VH: QVQLKQSGPGLVQPSQSLSITCTVSGFSLTRYGVHWVRQSPGKGLEWLGVIWRGGSTDYNAAFMSRLSITKDNSKSQVFFKMNSLQADDTAIYYCAKEGTGILDSWGQGTTLTVSS
VL: DIVLTQSPASLAVSLGQRATISCRASKSVSTSGYSYMHWYQQKPGQPPTLLIYLASNLESGVPARFSGSGSGTDFTLNIHPVEEEDAATYYCQHSRELPYTFGGGTKLEIK
notes: also called Clone # 78
- Kd [3]: 62.2 nM
- koff [3]: 0.000789 s⁻¹
- kon [3]: 12700 M⁻¹ s⁻¹
- Uptake pHrodo (MFI) [1]: 9980 MFI
- Kd [2]: 43.1 nM
- EC50 (read off the curve) [7]: ~0.02 µg/mL

B13: 06D1 (antibody, V domains shown)
VH: EVQLQQSGAELVRPGASVKLSCTASGFNIKDDYMHWVKQRPEQGLEWIGWIDPENGDTEYASKFQGKATITADTSSNTAYLQLSSLTSEDTAVYYCTTVAPGYYAMDYWGQGTSVTVSS
VL: ENVLTQSPAIMSASPGEKVTMTCRASSSVSSSYLHWYQQKSGASPKLWIYSTSNLASGVPARFSGSGSGTSYSLTISSVEAEDAATYYCQQYSGFTFGSGTKLEIK
notes: also called Clone # 11
- EC50 (read off the curve) [9]: ~0.01 µg/mL
- Kd [3]: 45.1 nM
- koff [3]: 0.0111 s⁻¹
- kon [3]: 245000 M⁻¹ s⁻¹
- Uptake pHrodo (MFI) [1]: 22400 MFI
- Kd [2]: 17.1 nM

B14: 06H10 (antibody, V domains shown)
VH: B13 VH with G102Y
VL: QIVLTQSPAIMSASLGEEITLTCSASSSVSYMHWYQQKSGTSPKLLIYSTSNLASGVPSRFSGSGSGTFYSLTISSVEAEDAADYYCHQWSSYHTFGGGTKLEIK
- Uptake pHrodo (MFI) [1]: 65800 MFI

B15: 03C7 (antibody, V domains shown)
VH: QVQLQQSGPELVKPGASVKISCKASGYSFTSYYIHWVKQRPGQGLEWIGWIYPGSGNTKYNEKFKGKATLTADTSSSTAYMQLSSLTSEDSAVYYCARMGSSYWYFDVWGTGTTVTVSS
VL: ENVLTQSPAIMAASLGQKVTMTCSASSSVSSSYLHWYQQKSGASPKPLIHRTSNLASGVPARFSGSGSGTSYSLTISSVEAEDDATYYCQQWSGYPLTFGAGTKLELK
notes: also called Clone # 85
- Kd [3]: 24.9 nM
- koff [3]: 0.0154 s⁻¹
- kon [3]: 618000 M⁻¹ s⁻¹
- Uptake pHrodo (MFI) [1]: 41700 MFI
- Kd [2]: 17.5 nM
- EC50 (read off the curve) [10]: ~0.01 µg/mL
